Assay results as given in the DeepSol protein solubility set.

Assay: soluble on expression in E. coli; label from the status in PepcDB or PDB records

Sequence	soluble on expression in E. coli
MRKTLIALMFAAALPTVAMAMPEGHGPMGPMDGPRHSEHMRGKGPFSQLDLSREQRQQIGKLMGEQMHDRKAVVEKYLEKLSPADQKAMKDELTAKHQKTQADIRALLKPEQQKEFDTIVKKQEERRAEWAEFKAWKAQQPQKAQLEHHHHHH	soluble
MNSLDSQITALYTLAHELLYLGSDGSPIYSDHFSRLNGDVLSRANTLYPHHGSTDEEEARLCLSLLMGYNATIYNNGDKEVRIQQILNRCWEVLDRLPASLLKVRLLTYCYG	not soluble
MSLGFSTYRATNYNEGTAYGNTPVILTLKSTSKSNLKTAVEELQKLNASYSNTTTLAGDDRIQTAIEISKEYYNNDGEKQDHSADVKENVKNVVLVGANALVDGLVAAPLAAEKDAPLLLTSKDKLDSSVKSEIKRVLDLKTSTEVTGKTVYLAGGVNSVSKEVVTELESMGLKVERFSGDDRYETSLKIADEIGLDNDKAYVVGGTGLADAMSIASVASTKLDGNGVVDKTNGHATPIVVVDGKADRISDDLDSFLGSADVDIIGGFASVSEKMEEAISDATGKGVTRVKGDDRQDTNSEVIKTYYANDTEGHHHHHH	soluble
MSELIKHSSNFLAAISPDNDCSITATNDFEAMMSWLNGYKKKPINTSRNYAREVKRYLIWLSCQGLTLAQVKIEDVYEYFNLLERPTTEWIIPDKKTDKIYPTQLIKYGGLSNRSINYTHTVLGLFYSFLQDAGYLTKNPINLVKKALEHHHHHH	not soluble
MSLGELFAVFNEKLTIPEQEALMFLYAYMPTGDVTDYTGDYYLENVRLSDQARREMPWGKEIPDDVFRHFVLPIRVNNENLDDSRRVFYNELKDRVKNLSLHDAVLEVNHWCHEKVIYTPSDARTSAPLASVKTAYGRCGEESTFTVAALRSVGIPARQVYTPRWAHTDDNHAWVEAWVDGKWYFFGACEPEPVLNLGWFNAPASRGMLMHTKVFGRYTGQEEIMYETPNYTEINVIDNYAPTAKGSVLVTDAEGQPVADATVEFKVYNYAEFYTVATKHTDRSGHASLTAGKGDMLVWASKDGRFGYSKLSFGKDNELKITLDKNASETYSLPLDIVPPAEGEGHHHHHH	not soluble
MGSSHHHHHHSSGLVPRGSHMASMAKMRAVDAAMYVLEKEGITTAFGVPGAAINPFYSAMRKHGGIRHILARHVEGASHMAEGYTRATAGNIGVCLGTSGPAGTDMITALYSASADSIPILCITGQAPRARLHKEDFQAVDIEAIAKPVSKMAVTVREAALVPRVLQQAFHLMRSGRPGPVLVDLPFDVQVAEIEFDPDMYEPLPVYKPAASRMQIEKAVEMLIQAERPVIVAGGGVINADAAALLQQFAELTSVPVIPTLMGWGCIPDDHELMAGMVGLQTAHRYGNATLLASDMVFGIGNRFANRHTGSVEKYTEGRKIVHIDIEPTQIGRVLCPDLGIVSDAKAALTLLVEVAQEMQKAGRLPCRKEWVADCQQRKRTLLRKTHFDNVPVKPQRVYEEMNKAFGRDVCYVTTIGLSQIAAAQMLHVFKDRHWINCGQAGPLGWTIPAALGVCAADPKRNVVAISGDFDFQFLIEELAVGAQFNIPYIHVLVNNAYLGLIRQSQRAFDMDYCVQLAFENINSSEVNGYGVDHVKVAEGLGCKAIRVFKPEDIAPAFEQAKALMAQYRVPVVVEVILERVTNISMGSELDNVMEFEDIADNAADAPTETCFMHYE	soluble
GAHVSRVEKLPKDYQIVYKEIQKYLFKVGPVELNEGIGLLSEILGFFEEGAAAGKGVLDVTGTDVAAFCDALIGDSKTYADLYQESIQQHVDKAMKNMKD	soluble
MSSSVLSVAKFDLKKMKTVYLKVDMEYDNRKNAALAILSKLSRDLLKICSNFGGCLARPQRDLCTIMLIIDSDKLENEHLVKHLKEHHMTAFEYIFTKKIKIQIGECFVQDGFLWWKQTNLPRIRNLKFRKKFKIKNKISEIHTHCSSEGNVYIKFSAEMIRIHPFDHWILDSDERFHDFNSGPISRRIRPRWVSCLPKLGKGRIVKIHRKIPETAPFESYDQMKSYWKKTKYEFVFQYGYDLPPSEPEVYYDVLFHNGETMLYPLYCVLTGTPEVLENRVGKTMTSEALALFLKAFKEASIVICGSVLAPEDQDCQAVKAYLDVMSMSAINSSKLKKEEKVTRKSSGGGHEEHQKPYEIRKIYPKIPVGVKRSISSSSQSGLPIVKKARPGFSVSVD	not soluble
MDQTNENVKESEPPSDDGPPILSVLCSLVDEIGSLRNENLRLKTRLVPAPRNTKNVVQRMSAMLEHRGSSIFPKLRRANRSSESMEIRNGARERLSTPPRKETSNSMNTSSDVSYGRNRAPPIVRPEQSDSEIDEQIFDDDDHRSRDTTRRCDSVNVPRHQNDNSTSACTSPSSASSSRDPSETMTTSRSSFLDLLGLRRRSTHIPQPTSYSKTTALKQTNKKRRRKISGNDNDSESSGMYANMEDHCSRVPSKPPRPASYYRRDDSEDSDCLRQMRQRKTASSLNVNNYEHRHEDMYRVSRETQWQHEKDNLMAEIEEMKMRNNRLVEQLREKSQQQSKLQCQLHKAEMQVNALSRRCALSEALDRLTLDERMEKSATSWIKKIEERLRIFENQMQNAKLEAATAHQMALNSSCHEKDAHQNCLEKLESLQREHMRVIHSSLVEIGVDEINMKRRLENLPTYEALYAFTHSVVRRLNEARWAVIEKTNETSRAQIDLIVSQSSHLVSLAQLERLKIMQTLRGKRQKRPSSFHGHSVSERNIRQDLSFYLPLKLHGSRVENSRRTIKKNAIVGNDRNIEEEFLKLFSYSKDFSMELAAPPERRANTRIETMMREMNGNGRPIIRRGPSGVSNSNIMRDRVTREVPSNRRPISLVETEERRIRRNEETKRSIKFMKTNSIDHGYNAYEPPPASRTTTTTIVASTQDISNNVHSPHGTPVFTRRIIIPVKGNAYDIVPEGTTANIVPANIPQMGRVRKLERAFSAESRNTVDSLHDREEQRRERRDHVEGGVERRQSKIQRSQPVSRLKQPSVQLSKFRTIENNGANREPPSSSILRPRTLEPQTSIPRITTSPPESRIPTPSSRHGNEKRGWLERLKGIGKL	not soluble
MSLEEQLAQNDQPSEKLVRLYGAWAEGGAGVLVTGNVMVAESGKGSINDVLISDDRALEMLKKWAKARTQNDTLLIMQINHAGKQSPAVVNKTPLAPSAVPLVGMNGFINPPRELSADEINGLIQQFVQTAKIAEQAGFSGVQIYAVHGYLISQFLSPHHNRRQDQWGGSLENRMRFLLETYTAIRAAAGKDFLVGVKLNSADFQKGGFDESESVQVVQKLSEMGIDFIEVSGGNYESPQMLAAKDSTRKREAFFIDYAEKARAASQAPLIITGGFRSQTAMEDALSSGHLDLVGIARPFALVPDLANKMQNRTYQTVQADRIQTGVAFVDKKAGAMLEMNWYMTQMDLIGQGKQSNPKIVGVESIAENFAGKEGHHHHHH	not soluble
MKRIGVFTSGGDAPGMNAAIRAVVRQAHALGVEVIGIRRGYAGMIQGEMVPLGVRDVANIIQRGGTILLTARSQEFLTEEGRAKAYAKLQAAGIEGLVAIGGDGTFRGALCLVEEHGMPVVGVPGTIDNDLYGTDYTIGFDTAVNTALEAIDRIRDTAASHERVFFIEVMGRHAGFIALDVGLAGGAEVIAVPEEPVDPKAVAEVLEASQRRGKKSSIVVVAEGAYPGGAAGLLAAIREHLQVEARVTVLGHIQRGGSPTAKDRILASRLGAAAVEALVGGASGVMVGEVEGEVDLTPLKEAVERRKDINRALLRLSQVLAL	soluble
MGSDKIHHHHHHENLYFQGMTKAIQSSVQVGELATGQALTVPIYSFMGSENSAPSVYIQANVHGAEVQGNAVIYQLMTLLEGYQVLGDITLAPLANPLGINQKSGEFTLGRFDPITGVNWNREYFDHNVDIQNWYAEHQHLTNSELFCAYRSMLVETCQARLTHSFGISTGHRLAVNLQAMAHQADIVLDLHTGPKSCKHLYCPEYDIDAARFFSIPYTLIIPNSFGGAMDEATFCPWWQLTEYATSQGREFSVPVSAFTLELASQERIDLADALEDAKGILAYLSHRGVIAEKVNPASMERFGCYLKDYKKFHAPKAGLIEYCASVGEPLTAGKPLVNILRIDLYGSEQAYQAISLPMDCVPILHFASASVLQGTELYKVMTNVFPLQPS	soluble
